Measurements reported in patent US8642734.

Experiment: dynamic light scattering; self-association of NT below pH 6.4

B1: NT, N-terminal fragment of major ampullate spidroin (MaSp) 1 from Euprosthenops australis (protein)
chain: GSGNSHTTPWTNPGLAENFMNSFMQGLSSMPGFTASQLDDMSTIAQSMVQSIQSLAAQGRTSPNKLQALNMAFASSMAEIAASEEGGGSLSTKTSSIASAMSNAFLQTTGVVNQPFINEITQLVSMFAQAGMNDVSA
  hydrodynamic size of polymers: polymers with a hydrodynamic size of ˜700 nm below pH 6.4
